Results from a protein production outcome set (Wang et al. 2014).

Test: label from the status in PepcDB records

Sequence	protein production
MDKHHSKKAILKLTLITTSILLMHSNQVNAEEQELKNQEQSPVIANVAQQPSPSVTTNTVEKTSVTAASASNTAKEMGDTSVKNDKTEDELLEELSKNLDTSNLGADLEEEYPSKPETTNNKESNVVTNASTAIAQKVPSAYEEVKPESKSSLAVLDTSKITKLQAITQRGKGNVVAIIDTGFDINHDIFRLDSPKDDKHSFKTKTEFEELKAKHNITYGKWVNDKIVFAHNYANNTETVADIAAAMKDGYGSEAKNISHGTHVAGIFVGNSKRPAINGLLLEGAAPNAQVLLMRIPDKIDSDKFGEAYAKAITDAVNLGAKTINMSIGKTADSLIALNDKVKLALKLASEKGVAVVVAAGNEGAFGMDYSKPLSTNPDYGTVNSPAISEDTLSVASYESLKTISEVVETTIEGKLVKLPIVTSKPFDKGKAYDVVYANYGAKKDFEGKDFKGKIALIERGGGLDFMTKITHATNAGVVGIVIFNDQEKRGNFLIPYRELPVGIISKVDGERIKNTSSQLTFNQSFEVVDSQGGNRMLEQSSWGVTAEGAIKPDVTASGFEIYSSTYNNQYQTMSGTSMASPHVAGLMTMLQSHLAEKYKGMNLDSKKLLELSKNILMSSATALYSEEDKAFYSPRQQGAGVVDAEKAIQAQYYITGNDGKAKINLKRMGDKFDITVTIHKLVEGVKELYYQANVATEQVNKGKFALKPQALLDTNWQKVILRDKETQVRFTIDASQFSQKLKEQMANGYFLEGFVRFKEAKDSNQELMSIPFVGFNGDFANLQALETPIYKTLSKGSFYYKPNDTTHKDQLEYNESAPFESNNYTALLTQSASWGYVDYVKNGGELELAPESPKRIILGTFENKVEDKTIHLLERDAANNPYFAISPNKDGNRDEITPQATFLRNVKDISAQVLDQNGNVIWQSKVLPSYRKNFHNNPKQSDGHYRMDALQWSGLDKDGKVVADGFYTYRLRYTPVAEGANSQESDFKVQVSTKSPNLPSRAQFDETNRTLSLAMPKESSYVPTYRLQLVLSHVVKDEEYGDETSYHYFHIDQEGKVTLPKTVKIGESEVAVDPKALTLVVEDKAGNFATVKLSDLLNKAVVSEKENAIVISNSFKYFDNLKKEPMFISKKEKVVNKNLEEIILVKPQTTVTTQSLSKEITKSGNEKVLTSTNNNSSRVAKIISPKHNGDSVNHTLPSTSDRATNGLFVGTLALLSSLLLYLKPKKTKNNSK	failed
MDKIRSLRFFIATLEGGSFAAAAKAYGTDPSTVSKAIHRLESDLGIQLFQRSTRQIRLTEAVRRYANTARFVLDELAACEDSLKSHNDALSGLLKINVPVSYGRLYIRPLLKEFCRRYPSITIDIHYDDAYVDIIEQGIDVSIRSGVVQDSQLIVRQLSPIDFIICGSQDYLTRHGVPSGPDAFNDHSWVRFRFKQTGKLLPIRMPEPDGTSEYNPERNFIVNDGESMAELCAEGLGLTQIPHFIARDWLKVGRLVPIFPSMRQAGNGVYLLYANREYVPARVRVFIDFITQAIQDMDETPFHTWAETLPIYQPNQGD	failed
MDKKPSILIFIVAYNAESTIENVLMRIPADLLDDFDAEVLVIDDQSSDDTVLRCAETIQSGKIRFKTNVLVNPENQGYGGNQKVGYQYAIEHDFDCVALLHGDGQYAPEYLRDLITPVTKGEAEAVFGSRMMTPFGALKGGMPAYKFVGNKILTLFQNIMLKTSLSEFHSGYRAYSVKALKQIPFHLNTPDFHFDTEIIIQLILWGFRIAERPIPTYYGDEICYVNGLKYALDVVITTTKARMQRLGLFHECKYEVIHPHNSNGYPEAKLSIKSPSGNRILEHHHHHH	failed
MDKLDAMQVYVAVVDAHSFARAAEVLGQPRSTVSRVVKELEAWLGAQLLQRTTRKLSVTAEGRRYYEECKRLLAEMAAMEASFPGRSAQPAGRFKVGMPQSLARHCILPRIGEFLQQYPDLELILCSSDNVEDIIQEGFDCVIRTGRIEDSTTLVARPLARYRWMVLASPAWLAAHGRPQSIDELHQHRAVGYLNHRTGRTIDWLFSLDEGDCAIRMRETLVVDDTDAYIQAGIQGLGLIRVASYLAQPYLQSGALVACLEQAASDLPLSLVYPQNRYLPPAVRAFYDWSRRVLQPPHSEA	failed
MDKNETRATIIRIGTDLISRQGFNATGIDAVLKEAGVPKGSFYYYFRSKEEFGLAVIDHFAERYDQRLDTFLNDEEVTPLNRIRNYLESALARLEQNQCSKGCLIGNLGQELADQHERFRGRLDEIFRSWKDRFAACLREAQRGGELAPELDAGVAAGFILSGLEGAILRTKVMKSPQPLRDFIEILFASVLRRQA	not failed
MDKNIKNKAEELIKDLIQKIDNNPYDAQAYYNLGVALNDAHSAEQAEELFKKALNIFANSKEKSSLMHYGLGNVYYTNSIYDKAIVEFKKVQSEKLKQDSMLMMAQAYYAQENYPQAMMYALTVSENTKHNVDAISLLASCFMATGDLTNARKYYLKALEYDKDNVEVLFQLGVIELSLSGEAGKYFDRVKNLDNEYYKKMQQRLADVQRFLMTQKKGKSDE	failed
MDKNNLEDLTGKKILRNGFGGLRLEYGTIFLDVGLFTYIVLILSIFFFLVERWFLGALTFVLHVPLLLLGIWCGER	failed
MDKPVVRDAALLIFRAVLGVIFVAHGWEKLFISGVTKTTGQFSAWGVPQPKLSVWITSISELLGGAFLVVGLLTTFVAGALALLIAAAIYFVHLSSGFFTVENGIEFPLLIIVSLLVIVVFGSGRASVDGVLTRG	failed
MDKQKEQLSIEVARLYYQSDLGQQEIATRLGVSRPTVSRLLQNAKLKGYVKIEVQDPFSNLTELANALKEKYQLKNVTVAFSQTNDYSEISKQISQSAAEYLEEIIHDDDILGVSWGTTMYKIAQKLSPQKAEIKVVQLKGGVSHSDVNTYAAETLALFGAAYDTAPVSLPLPVVLDNPLAKQMVEADRHIKNIIELGKKANIAIFTVGTVREEALLFRLGYFSDEEKIRLKEKAVGDICSRFFTINGEIADEKMNERTIGIDLQDLKQKETAILVAGGERKIKAIHGALRGGYANHFITDQYTAKQLLEQNFSN	failed
MDKQQRGIQVIRIWLGVTMLIHGVMKVTSLEDTLAFFASIGLPSLFVYGVAAIELIGGLFMIIGFLIPLVSVGFIAVLVGAIFSFGLASGFSGYEYELFLAITSLAILVSYADKKYLTLKLYF	failed
MDKYPFLREAGSSFKDRDVTKMSDLIATWDGQDIKGPALIGVPLSKSSISHSGASFAPGTIRQALKHSSAYSAELGEHVVSELLYDLGDIDIHVTDIVKSHHHIFQTMHALLSDHPDWVPLILGGDNSISYSTIKAIAQTKGTTAVIQFDAHHDVRNTEDGGPTNGTPFRRLLDEEIIEGQHLIQLGIREFSNSQAYEAYAKKHNVNIHTMDMIREKGLIPTIKEILPVVQDKTDFIFISVDMDVLDQSHAPGCPAIGPGGLYTDELLEAVKYIAQQPNVAGIEIVEVDPTLDFRDMTSRAAAHVLLHALKGMKLSPFK	not failed
MDLDVYVSAHRAEWDRLDDLLRRRRRLTGAEADELVALYQRTATHLSVIQSSAPDPQLTGRLSQLVARARSAVTGTRRASWRDVTRFLAYGFPAAVYRARHWWVPTALLSTVTAVLLGWWIGTHPEVQSSIAAPSELRALTRPGGEYETYYSSHPAASFAAQVWTNNAQAAAMCLVLGIFLGLPVLWILFQNMLNLGVGLGLMSSAGRLDTFLGLVLPHGLLELTAVFVAAGTGLRLGWTLIDPGPRSRRTALAEEGRAALGMAVGLALVLFVSGAIEGFVTPSGLPTWARIGIGIAAELAFLTYVYVLGGRATRAGDTGDIEAAERSATVPTAA	failed
MDLHGCAKNQVDAELIIGIMENLSWKNTSDPDEADLIIVNSCGFINSAKEESINAVLQAKAAHPKAKVLLAGCLAERYADILKNDLPEADGIFGNGNLSLLPQLIDSMFPKKTSDEKFIEKTLVPPQIGICGGERPKILNFPRSTYIKITEGCDNFCSFCAIPIIRGRLRSRPIKDICDEIKTFLKKSFYEFNLIGQDLAAYQTGKDDLSEDELHRENCSGLALLLKSISKIKGNFKIRLLYIHPDHFPLDILPIMTADKRFLPYFDIPFQSGAQKIIRAMNRNGAAEVYLDIIKNIREAFEKTNSPYGEPQIRTTFLVGFPGETDEDFNETIKFLKELRPLWSGGFTYSREEDTPSYSFKGKVPKKTAEARLAEIQNAQTSITEKKLDSFIGKEIEVLVEELIQAEDKTFLALGRAWFQAPEVDGAVVLNFNLNKKDIDGNPIAPGSIVKARIAARNGFDLEAVAV	failed
MDLHSLCVDSHALRRDGMRFLHTADWQLGMTRHFLAGDAQPRYSAARRDAVAGLKALAADVGAEFVVVAGDVFEHNQLAPQIVGQSLEAMRVIGLPVYLLPGNHDPLDASSVYTSTLFRAERPDNVVVLDRAGVHEVRPGVQIVAAPWRSKAPTTDPVAEVLAGLPTDAAIRLLVAHGGVDALDPDHDKPSLIRLAALDDALTRQAIHYVALGDKHSLTQVGSSGRVWYSGAPEVTNFDDVEPDPGHVLVVDIDESDPRHPVTVDARRIGRWRFVTLHHQVDTSRDIADLDLNLDLMTDKDRTVVRLALTGSLTVTDRAALDTCLDKYARLFAWLGLWERHTDLAVIPVDAEFTDLGIGGFAAAAVDELVATARGGDDESAVDAQAALALLLRLADRGAALEHHHHHH	failed
MDLICMYVFKGEESFGESIDVYGDYLIVKVGTEFLAVPKKSIKSVEDGRIVIGEFDEEEARELGRKWLEEKSKPVTLEELKSYGFGEEGE	not failed
MDLIEPAVRVFLGVFFLMIGLQFAARTLGLYSRLGFSHINYGKTGTATWWHRHTFNLFRAAILLMCLARIWVDLDAWLGVFPLLYHWPVLLAGAVLLLVSYTSVNYLQAYMHEDWRSGIDDHHGSGHLLTDGPFGRSRNPLFLAVMTGQLGFFLALPSVFSLVCLVTGVLVIMRQAREEEKALAKRFGEQYEAYCKRVPRWF	failed
MDLKESQEFSGLIAGKPRISYQNDYGGHRTNLHLLDSRLWIILSGQAAILGFCGNTVLAEDESMKSKSGDNMDESGNTGLEKIEDGSVVSNIHTSKWRVFTDSGRDYFFQGKLEPAERLFGSAIQEAKEGFGEKDPHVASACNNLAELYRVKKEFDKAEPLYLEAVSILEEFYGPDDVRVGATLHNLGQLYLVQRKLEEARACYEIRRCVFAVISYVKNYDELES	failed
MDLSTAFPTLVTDLPAAFSMSVVGGVGLAMIVLDAFRNDHPAIPWLGVAALGVSAVWEITHLGAPPSTVFFETLRTGGFVAFINLIILLTGLATILLSVPYLNQLRYDYGEVYALIMFCTVGMIMLGSANNMVSIFLGLETMSVCLYVLTGFIREDEGAVESALKYFLLGAFSTGFFLYGIALMYGATGTMALPAMAAAELGTLSTRLLFWGGFALFLVGFFFKVSAAPFHMWTPDVYQGAPTPLTGYMSTATKAAAFAALILVLVHAVPGGEWQLSVAAVAVLTMVIGNVMALAQTNVKRLLAYSSIAHAGYLLVGLSAGTSAGYAGALFYLLVYAVMNIGAFGVMSMLEWDGKEGREQTLSSLAGIANDRPVLGSTMGVFMLSLIGFPPLGGFIGKYLVFAPAVDAGLTWLVVIGVLMSALSAYYYLRVVYVFWMQSADEVAATDPVRAAAFPRATVAATGTLVVCAVALVVLGVFFGGVLETTLGFFETTAMATAP	failed
MDLTISNELTGEIYGPIEVSEDMALTDLIALLQADCGFDKTKHDLYYNMDILDSNRTQSLKELGLKTDDLLLIRGKISNSIQTDAATLSDEAFIEQFRQELLNNQMLRSQLILQIPGLNDLVNDPLLFRERLGPLILQRRYGGYNTAMNPFGIPQDEYTRLMANPDDPDNKKRIAELLDQQAIDEQLRNAIEYTPEMFTQVPMLYINIEINNYPVKAFVDTGAQTTIMSTRLAKKTGLSRMIDKRFIGEARGVGTGKIIGRIHQAQVKIETQYIPCSFTVLDTDIDVLIGLDMLKRHLACVDLKENVLRIAEVETSFLSEAEIPKSFQEGLPAPTSVTTSSDKPLTPTKTSSTLPPQPGAVPALAPRTGMGPTPTGRSTAGATTATGRTFPEQTIKQLMDLGFPRDAVVKALKQTNGNAEFAASLLFQ	failed
MDLTKQFPRSPVDRLGGMDHLKRVIDKARAHVAGTLGEYTYNCPLDQAFFSFFGLDHEKFAEAVKSRPQDQDMLAWVHSQSPRSKNPKEVESFNREYESRSPDSPEKWDYFRSVRDSLAPGRTDITTWVKLLDLEEKRPV	not failed
